From the supplement of paper PMC11246515
± gives the standard deviation of the averaged measurements.

Experiment: total protein half-life in vivo (active degradation + dilution); higher = more stable protein
[1] = E. coli NCM3722 delta-clpP delta-lon delta-hslV, growth: N-lim chemostat, doubling time 6 h
[2] = E. coli NCM3722 delta-clpP, growth: N-lim chemostat, doubling time 6 h
[3] = E. coli NCM3722 delta-hslV, growth: N-lim chemostat, doubling time 6 h
[4] = E. coli NCM3722 delta-lon, growth: N-lim chemostat, doubling time 6 h
[5] = E. coli NCM3722 delta-smpB, growth: N-lim chemostat, doubling time 6 h
[6] = wild type E. coli NCM3722, growth: C-lim chemostat, doubling time 3 h
[7] = wild type E. coli NCM3722, growth: C-lim chemostat, doubling time 6 h
[8] = wild type E. coli NCM3722, growth: N-lim chemostat, doubling time 6 h
[9] = wild type E. coli NCM3722, growth: N-lim chemostat, doubling time 12 h
[10] = wild type E. coli NCM3722, growth: P-lim chemostat, doubling time 6 h
[11] = wild type E. coli NCM3722, growth: P-lim chemostat, doubling time 12 h
[12] = wild type E. coli NCM3722, growth: C-lim chemostat, doubling time 12 h

Sequence | total protein half-life in vivo [1] [h] | total protein half-life in vivo [2] [h] | total protein half-life in vivo [3] [h] | total protein half-life in vivo [4] [h] | total protein half-life in vivo [5] [h] | total protein half-life in vivo [6] [h] | total protein half-life in vivo [7] [h] | total protein half-life in vivo [8] [h] | total protein half-life in vivo [9] [h] | total protein half-life in vivo [10] [h] | total protein half-life in vivo [11] [h] | total protein half-life in vivo [12] [h]
MKQSHFFAHLSRLKLINRWPLMRNVRTENVSEHSLQVAMVAHALAAIKNRKFGGNVNAERIALLAMYHDASEVLTGDLPTPVKYFNSQIAQEYKAIEKIAQQKLVDMVPEELRDIFAPLIDEHAYSDEEKSLVKQADALCAYLKCLEELAAGNNEFLLAKTRLEATLEARRSQEMDYFMEIFVPSFHLSLDEISQDSPL | 4.544 ± 0.041 | 4.34 ± 0.065 | 4.17 ± 0.19 | 5.57 ± 1.7 | 4.07 ± 0.4 | 2.94 ± 0.21 | 5.64 ± 0.19 | 4.16 ± 0.45 | 7.12 ± 0.38 | 4.86 ± 0.56 | 9.76 ± 0.83 | –
MSKVCIIAWVYGRVQGVGFRYTTQYEAKRLGLTGYAKNLDDGSVEVVACGEEGQVEKLMQWLKSGGPRSARVERVLSEPHHPSGELTDFRIR [P0AB65] | 6.07 ± 0.29 | 5.82 ± 0.093 | 5.59 ± 0.28 | 5.89 ± 0.12 | 5.9 ± 0.89 | 3.38 ± 0.23 | 5.96 ± 0.08 | 5.32 ± 0.17 | 9.77 ± 1.8 | – | – | 8.66
MNEFPVVLVINCGSSSIKFSVLDASDCEVLMSGIADGINSENAFLSVNGGEPAPLAHHSYEGALKAIAFELEKRNLNDSVALIGHRIAHGGSIFTESAIITDEVIDNIRRVSPLAPLHNYANLSGIESAQQLFPGVTQVAVFDTSFHQTMAPEAYLYGLPWKYYEELGVRRYGFHGTSHRYVSQRAHSLLNLAEDDSGLVVAHLGNGASICAVRNGQSVDTSMGMTPLEGLMMGTRSGDVDFGAMSWVASQTNQSLGDLERVVNKESGLLGISGLSSDLRVLEKAWHEGHERAQLAIKTFVHRIARHIAGHAASLRRLDGIIFTGGIGENSSLIRRLVMEHLAVLGLEIDTEMNNRSNSCGERIVSSENARVICAVIPTNEEKMIALDAIHLGKVNAPAEFA | 3.9 | – | – | – | – | – | – | – | – | – | – | –
MPAENIVEVHHLKKSVGQGEHELSILTGVELVVKRGETIALVGESGSGKSTLLAILAGLDDGSSGEVSLVGQPLHNMDEEARAKLRAKHVGFVFQSFMLIPTLNALENVELPALLRGESSAESRNGAKALLEQLGLGKRLDHLPAQLSGGEQQRVALARAFNGRPDVLFADEPTGNLDRQTGDKIADLLFSLNREHGTTLIMVTHDLQLAARCDRCLRLVNGQLQEEA [P0A9T8] | 6.26 | 6.68 | 5.9 | – | 5.39 ± 0.17 | 3.23 ± 0.07 | 5.51 ± 0.64 | 7.11 | 11.4 ± 0.56 | 5.46 ± 0.41 | 11.6 | 11.2 ± 1.8
MKPTTLLLIFTFFAMPGIVYAESPFSSLQSAKEKTTVLQDLRKICTPQASLSDEAWEKLMLSDENNKQHIREAIVAMERNNQSNYWEALGKVECPDM [Q2M7X4] | 4.53 | – | – | – | – | – | – | – | – | – | – | –
MPIRVPDELPAVNFLREENVFVMTTSRASGQEIRPLKVLILNLMPKKIETENQFLRLLSNSPLQVDIQLLRIDSRESRNTPAEHLNNFYCNFEDIQDQNFDGLIVTGAPLGLVEFNDVAYWPQIKQVLEWSKDHVTSTLFVCWAVQAALNILYGIPKQTRTEKLSGVYEHHILHPHALLTRGFDDSFLAPHSRYADFPAALIRDYTDLEILAETEEGDAYLFASKDKRIAFVTGHPEYDAQTLAQEFFRDVEAGLDPDVPYNYFPHNDPQNTPRASWRSHGNLLFTNWLNYYVYQITPYDLRHMNPTLD | 3.26 ± 0.67 | 1.85 ± 0.45 | 1.61 ± 0.2 | 1.87 ± 0.033 | 1.52 ± 0.29 | 2.61 ± 0.097 | 3.27 ± 0.32 | 1.58 ± 0.093 | 2.14 ± 0.23 | 3.94 ± 0.39 | 6.4 ± 0.19 | 4.92 ± 0.52
MKRKTLPLLALVATTLFLIACDDRSDDLKAISKFKDLTPPRFSDVVSHQDDVSEEWSQVDYLSGPTLQVLRTRQSPDGCEDGSYYYLVDMQEKTVQPLMNALCIADNIKLEYQEVTDPYTKEKYFEYAHDGKLMGQLLIPSNPDNQE | – | – | – | – | – | – | 1.71 | – | – | – | – | –
MKDVVDKCSTKGCAIDIGTVIDNDNCTSKFSRFFATREEAESFMTKLKELAAATSSADEGASVAYKIKDLEGQVELDAAFTFSCQAEMIIFELSLRSLA | 5.09 ± 0.21 | 4.2 | 2.6 ± 0.38 | 2.85 ± 0.098 | 2.09 ± 0.23 | 2.11 ± 0.4 | 4.95 ± 1.9 | 2.26 ± 0.19 | 3.38 ± 0.55 | 4 ± 0.22 | 7.6436 ± 0.0046 | 5.78 ± 0.33
MDFSGKNVWVTGAGKGIGYATALAFVEAGAKVTGFDQAFTQEQYPFATEVMDVADAAQVAQVCQRLLAETERLDALVNAAGILRMGATDQLSKEDWQQTFAVNVGGAFNLFQQTMNQFRRQRGGAIVTVASDAAHTPRIGMSAYGASKAALKSLALSVGLELAGSGVRCNVVSPGSTDTDMQRTLWVSDDAEEQRIRGFGEQFKLGIPLGKIARPQEIANTILFLASDLASHITLQDIVVDGGSTLGA | – | – | – | – | – | 3.26 ± 0.27 | – | – | – | – | – | –
